The values that follow come from article PMC7004846.

For this test, the target named is Aquifex aeolicus VF5 Wzt carbohydrate-binding domain (residues 235-395), long construct (Aquifex aeolicus VF5). Nature of the test: SEC.

Consider “Aquifex aeolicus VF5 Wzt carbohydrate-binding domain (residues 235-395), long construct (domain or fragment)”, for which the stoichiometry N (in general, the number of molecules, sites or subunits per partner or assembly) amounted to 2.
